Data from patent US20200399358A1 (Sanofi, published 2020).
Changes are numbered by the printed parent chain. Values belong to the binder of their own block, whether it stands above or below them.

What was measured:
human TGF-β3 [1] = molecular target: T1, human TGF-β3 (human, UniProt P10600 301-412); experiment: cell-based or functional assay
T1 sequence (looked up): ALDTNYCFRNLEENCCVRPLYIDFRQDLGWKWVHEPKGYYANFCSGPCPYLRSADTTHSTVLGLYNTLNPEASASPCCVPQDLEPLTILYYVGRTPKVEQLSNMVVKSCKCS

murine TGF-β1 [2] = molecular target: T2, murine TGF-β1 (mouse, UniProt P04202 279-390); experiment: cell-based or functional assay
human TGF-β1 [3] = molecular target: T3, human TGF-β1 (human, UniProt P01137 279-390); experiment: cell-based or functional assay
human TGF-β2 [4] = molecular target: T4, human TGF-β2 (human, UniProt P61812 303-414); experiment: cell-based or functional assay
T4 sequence (looked up): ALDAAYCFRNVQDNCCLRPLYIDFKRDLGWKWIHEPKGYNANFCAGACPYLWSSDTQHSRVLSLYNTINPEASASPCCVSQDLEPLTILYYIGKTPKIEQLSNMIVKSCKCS

human TGF-β3 [5] = molecular target: T1, human TGF-β3; experiment: SPR (Biacore T200), Ab1 injected over immobilized TGF-β homodimer, 1:1 model
Experimental: (§1) The affinity of Ab1 for all human and murine TGF-β isoforms was determined by surface plasmon resonance on a Biacore T200 Biosensor instrument (GE Healthcare) using a dextran-coated carboxy-methylated (CM5) series S chip. Ab1 at a series of concentrations (1.11, 3.33, 10, and 30 nM) was injected onto immobilized recombinant TGF-β to measure the binding interaction in real time. The TGF-β homodimers were immobilized at a low density to reduce avidity effects. Injections were performed in triplicate and the binding assay was repeated three times. The data from the kinetic experiments were processed using the Biacore T200 Biaevaluation v2.0 software. Resulting sensorgrams were zeroed, aligned, double referenced, and cropped for curve fitting analysis using a 1:1 binding model to determine association rate constant (kₐ), dissociation rate constant (kd), and equilibrium dissociation constant (KD).

human TGF-β2 [6] = molecular target: T4, human TGF-β2; experiment: as above
Experimental: as §1

murine TGF-β1 [7] = molecular target: T2, murine TGF-β1; experiment: as above
Experimental: as §1

murine TGF-β2 [8] = molecular target: T5, murine TGF-β2 (mouse, UniProt P27090 303-414); experiment: as above
T5 construct: mature; Bought from R&D Systems; also called Murine and Rat TGF-β2; murine/rat TGF-β2
T5 sequence (looked up): T4 sequence (looked up) with S59T, R60K, K94N
Experimental: as §1

human TGF-β1 [9] = molecular target: T3, human TGF-β1; experiment: as above
Experimental: as §1

human TGF-β1 [10] = molecular target: T3, human TGF-β1; experiment: cell-based or functional assay; remark: listed apart in the source
murine TGF-β2 [11] = molecular target: T5, murine TGF-β2; experiment: cell-based or functional assay

T2 sequence (P04202 279-390 limits assumed): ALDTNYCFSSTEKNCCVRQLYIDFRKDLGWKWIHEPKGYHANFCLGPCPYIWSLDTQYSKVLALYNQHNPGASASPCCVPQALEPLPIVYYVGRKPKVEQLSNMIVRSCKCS
T3 sequence (P01137 279-390 limits assumed): as the sequence (P04202 279-390 limits assumed) above, with S75A counted along it

EC50 (read off the curve); neutralisation, Mv 1 Lu proliferation with 1 ng/ml TGF-β (human TGF-β3 [1]): ~0.4 µg/mL | EC50 (read off the curve); neutralisation, Mv 1 Lu proliferation with 1 ng/ml TGF-β (murine TGF-β1 [2]): ~4 µg/mL | EC50 (read off the curve); neutralisation, Mv 1 Lu proliferation with 1 ng/ml TGF-β (human TGF-β1 [3]): ~7 µg/mL | EC50 (read off the curve); neutralisation, Mv 1 Lu proliferation with 1 ng/ml TGF-β (human TGF-β2 [4]): ~6 µg/mL
B1: 1D11 (antibody, mouse IgG1, kappa, V domains shown)
VH: HVQLQQSGPELVRPGASVKLSCKASGYIFITYWMNWVKQRPGQGLEWIGQIFPASGSTNYNEMFEGKATLTVDTSSSTAYMQLSSLTSEDSAVYYCARGDGNYALDAMDYWGQGTSVTVSS
VL: NIVLTQSPASLAVSLGQRATISCRASESVDSYGNSFMHWYQQKSGQPPKLLIYLASNLESGVPARFSGSGSRTDFTLTIDPVEADDAATYYCQQNNEDPLTFGAGTKLELKR

Kd (human TGF-β3 [5]): 1.65 nM | koff (human TGF-β3 [5]): 0.000372 s⁻¹ | kon (human TGF-β3 [5]): 223000 M⁻¹ s⁻¹ | Kd (human TGF-β2 [6]): 3 nM | koff (human TGF-β2 [6]): 0.000823 s⁻¹ | kon (human TGF-β2 [6]): 286000 M⁻¹ s⁻¹ | Kd (murine TGF-β1 [7]): 2.8 nM | koff (murine TGF-β1 [7]): 0.000835 s⁻¹ | kon (murine TGF-β1 [7]): 298000 M⁻¹ s⁻¹ | Kd (murine TGF-β2 [8]): 1.88 nM | koff (murine TGF-β2 [8]): 0.000645 s⁻¹ | kon (murine TGF-β2 [8]): 348000 M⁻¹ s⁻¹ | Kd (human TGF-β1 [9]): 1.48 nM | koff (human TGF-β1 [9]): 0.000343 s⁻¹ | kon (human TGF-β1 [9]): 311000 M⁻¹ s⁻¹ | EC50 (read off the curve); neutralisation, Mv 1 Lu proliferation with 1 ng/ml TGF-β (human TGF-β3 [1]): ~2 µg/mL | fold change of luciferase activity against isotype control Ab (639440 RLU) (human TGF-β1 [10]): 1.45 fold | fold change of luciferase activity against no Ab control (638866 RLU) (human TGF-β1 [10]): 1.45 fold | EC50 (read off the curve); neutralisation, Mv 1 Lu proliferation with 1 ng/ml TGF-β (murine TGF-β1 [2]): ~0.6 µg/mL | EC50 (read off the curve); neutralisation, Mv 1 Lu proliferation with 1 ng/ml TGF-β (human TGF-β2 [4]): ~4 µg/mL | EC50 (read off the curve); neutralisation, Mv 1 Lu proliferation with 1 ng/ml TGF-β (murine TGF-β2 [11]): ~9 µg/mL
B2: Ab1 (antibody, human IgG4 S228P, kappa)
heavy: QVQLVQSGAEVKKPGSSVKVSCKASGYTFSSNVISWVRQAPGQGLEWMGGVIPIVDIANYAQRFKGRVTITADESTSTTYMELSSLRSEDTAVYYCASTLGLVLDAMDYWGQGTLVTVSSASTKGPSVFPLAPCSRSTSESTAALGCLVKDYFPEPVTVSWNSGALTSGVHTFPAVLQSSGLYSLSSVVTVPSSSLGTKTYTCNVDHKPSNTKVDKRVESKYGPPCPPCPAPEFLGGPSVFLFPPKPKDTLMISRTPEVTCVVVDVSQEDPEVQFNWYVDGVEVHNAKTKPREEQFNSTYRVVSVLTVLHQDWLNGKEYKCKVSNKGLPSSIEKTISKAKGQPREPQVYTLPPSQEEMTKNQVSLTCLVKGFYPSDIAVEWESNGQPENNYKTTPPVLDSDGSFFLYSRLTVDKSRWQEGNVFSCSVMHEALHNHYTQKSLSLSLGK
light: ETVLTQSPGTLSLSPGERATLSCRASQSLGSSYLAWYQQKPGQAPRLLIYGASSRAPGIPDRFSGSGSGTDFTLTISRLEPEDFAVYYCQQYADSPITFGQGTRLEIKRTVAAPSVFIFPPSDEQLKSGTASVVCLLNNFYPREAKVQWKVDNALQSGNSQESVTEQDSKDSTYSLSSTLTLSKADYEKHKVYACEVTHQGLSSPVTKSFNRGEC
notes: Human IgG4 with proline at position 228 (EU numbering); also called anti-TGF-β antibody Ab1

EC50 (read off the curve); neutralisation, Mv 1 Lu proliferation with 1 ng/ml TGF-β (human TGF-β3 [1]): ~2 µg/mL | EC50 (read off the curve); neutralisation, Mv 1 Lu proliferation with 1 ng/ml TGF-β (murine TGF-β1 [2]): ~0.6 µg/mL | EC50 (read off the curve); neutralisation, Mv 1 Lu proliferation with 1 ng/ml TGF-β (human TGF-β2 [4]): ~5 µg/mL | EC50 (read off the curve); neutralisation, Mv 1 Lu proliferation with 1 ng/ml TGF-β (murine TGF-β2 [11]): ~9 µg/mL
B3: fresolimumab (antibody, human IgG4, kappa)
heavy: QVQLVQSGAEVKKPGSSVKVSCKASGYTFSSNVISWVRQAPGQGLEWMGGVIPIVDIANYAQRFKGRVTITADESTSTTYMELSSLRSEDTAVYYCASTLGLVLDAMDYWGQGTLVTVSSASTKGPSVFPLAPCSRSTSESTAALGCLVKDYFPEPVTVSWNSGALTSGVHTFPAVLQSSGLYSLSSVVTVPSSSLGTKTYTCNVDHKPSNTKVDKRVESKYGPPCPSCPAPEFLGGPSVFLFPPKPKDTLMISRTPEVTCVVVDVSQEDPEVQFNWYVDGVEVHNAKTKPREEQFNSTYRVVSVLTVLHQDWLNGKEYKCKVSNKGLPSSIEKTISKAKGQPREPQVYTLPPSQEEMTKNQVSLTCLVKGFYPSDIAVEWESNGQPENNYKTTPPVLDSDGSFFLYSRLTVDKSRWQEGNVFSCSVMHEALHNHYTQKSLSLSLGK
light: B2 light
